These results are taken from paper PMC4230619 (Molecular Biology of the Cell, 2014).

This data set concerns the molecule itself. Put plainly: single-molecule TIRF step-intensity counting in live cells.

B1: dynamin2-EGFP (natural protein, human (endogenous in SUM159), UniProt P50570 1-870, looked up)
chain: MGNRGMEELIPLVNKLQDAFSSIGQSCHLDLPQIAVVGGQSAGKSSVLENFVGRDFLPRGSGIVTRRPLILQLIFSKTEHAEFLHCKSKKFTDFDEVRQEIEAETDRVTGTNKGISPVPINLRVYSPHVLNLTLIDLPGITKVPVGDQPPDIEYQIKDMILQFISRESSLILAVTPANMDLANSDALKLAKEVDPQGLRTIGVITKLDLMDEGTDARDVLENKLLPLRRGYIGVVNRSQKDIEGKKDIRAALAAERKFFLSHPAYRHMADRMGTPHLQKTLNQQLTNHIRESLPALRSKLQSQLLSLEKEVEEYKNFRPDDPTRKTKALLQMVQQFGVDFEKRIEGSGDQVDTLELSGGARINRIFHERFPFELVKMEFDEKDLRREISYAIKNIHGVRTGLFTPDLAFEAIVKKQVVKLKEPCLKCVDLVIQELINTVRQCTSKLSSYPRLREETERIVTTYIREREGRTKDQILLLIDIEQSYINTNHEDFIGFANAQQRSTQLNKKRAIPNQGEILVIRRGWLTINNISLMKGGSKEYWFVLTAESLSWYKDEEEKEKKYMLPLDNLKIRDVEKGFMSNKHVFAIFNTEQRNVYKDLRQIELACDSQEDVDSWKASFLRAGVYPEKDQAENEDGAQENTFSMDPQLERQVETIRNLVDSYVAIINKSIRDLMPKTIMHLMINNTKAFIHHELLAYLYSSADQSSLMEESADQAQRRDDMLRMYHALKEALNIIGDISTSTVSTPVPPPVDDTWLQSASSHSPTPQRRPVSSIHPPGRPPAVRGPTPGPPLIPVPVGAAASFSAPPIPSRPGPQSVFANSDLFPAPPQIPSRPVRIPPGIPPGVPSRRPPAAPSRPTIIRPAEPSLLD
On to B1, for which the stoichiometry N (in general, the number of molecules, sites or subunits per partner or assembly) is 2.
